pIC50: −log10 of the molar value.
Biological target: Cry1Ab receptor proteins in brush border membrane vesicle (BBMV) preparations from the midgut of Heliothis zea larvae
Experiment: homologous competition with 0.25 nM ^125I Cry1Ab on H. zea BBMV (0.10 mg protein/ml)

Substance: Cry1Ab core toxin (trypsin truncated Cry1Ab)
- pIC50: 8.70
